Measured values as given in the supplement of paper PMC9112550, “Optimization of the antimicrobial peptide Bac7 by deep mutational scanning” (BMC Biology, 2022).

System: Escherichia coli TOP10
Test: shrunken log2 fold change of peptide-encoding DNA abundance (4.5 h post-induction vs induction); higher = less antimicrobial activity (less host growth inhibition)
Conditions: time post-induction: 4.5 h; library: site-saturation at positions 5, 18, 19, 20
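Note: peptides expressed intracellularly from a pBAD plasmid library in pooled LB shake-flask culture, induced with 0.3% L-arabinose, DNA abundance read by NGS, three biological replicates, DESeq2 with apeglm shrinkage.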

## RRIRNRPPRLPRPRPRPESYPRP
  shrunken log2 fold change: -0.0446

## RRIRNRPPRLPRPRPRPQPNPRP
  shrunken log2 fold change: -0.047

## RRIRARPPRLPRPRPRPCPHPRP
  shrunken log2 fold change: -0.329

## RRIRKRPPRLPRPRPRPWIPPRP
  shrunken log2 fold change: 0.0372

## RRIRYRPPRLPRPRPRPLVQPRP
  shrunken log2 fold change: -0.49

## RRIRDRPPRLPRPRPRPDHQPRP
  shrunken log2 fold change: -0.0643

## RRIRQRPPRLPRPRPRPQTGPRP
  shrunken log2 fold change: -0.137

## RRIRERPPRLPRPRPRPAILPRP
  shrunken log2 fold change: -0.629

## RRIRIRPPRLPRPRPRPSRLPRP
  shrunken log2 fold change: -0.0995

## RRIRQRPPRLPRPRPRPNKKPRP
  shrunken log2 fold change: -0.0406

## RRIRTRPPRLPRPRPRPHFLPRP
  shrunken log2 fold change: -0.218

## RRIRDRPPRLPRPRPRPSTFPRP
  shrunken log2 fold change: 0.11

## RRIRFRPPRLPRPRPRPFNYPRP
  shrunken log2 fold change: -0.183

## RRIRRRPPRLPRPRPRPTERPRP
  shrunken log2 fold change: 0.409

## RRIRSRPPRLPRPRPRPEHGPRP
  shrunken log2 fold change: -0.0838

## RRIRRRPPRLPRPRPRPMSSPRP
  shrunken log2 fold change: -0.00615

## RRIRPRPPRLPRPRPRPKLGPRP
  shrunken log2 fold change: 0.551

## RRIRNRPPRLPRPRPRPGNMPRP
  shrunken log2 fold change: -1.16

## RRIRARPPRLPRPRPRPKKWPRP
  shrunken log2 fold change: 0.0405

## RRIRMRPPRLPRPRPRPEKGPRP
  shrunken log2 fold change: -0.0013

## RRIRRRPPRLPRPRPRPIQAPRP
  shrunken log2 fold change: -0.0046

## RRIRNRPPRLPRPRPRPCLWPRP
  shrunken log2 fold change: -0.359

## RRIRNRPPRLPRPRPRPAIFPRP
  shrunken log2 fold change: -0.424

## RRIRARPPRLPRPRPRPLCNPRP
  shrunken log2 fold change: -0.0439

## RRIRFRPPRLPRPRPRPQFEPRP
  shrunken log2 fold change: -0.19

## RRIRPRPPRLPRPRPRPDMNPRP
  shrunken log2 fold change: -0.268

## RRIRWRPPRLPRPRPRPHRCPRP
  shrunken log2 fold change: 0.000478

## RRIRQRPPRLPRPRPRPNRPPRP
  shrunken log2 fold change: -0.056

## RRIRHRPPRLPRPRPRPVPTPRP
  shrunken log2 fold change: 0.144

## RRIRKRPPRLPRPRPRPQAYPRP
  shrunken log2 fold change: -0.216

## RRIRIRPPRLPRPRPRPTSGPRP
  shrunken log2 fold change: -0.00782

## RRIRSRPPRLPRPRPRPPCVPRP
  shrunken log2 fold change: 0.00342

## RRIRTRPPRLPRPRPRPQMCPRP
  shrunken log2 fold change: 0.0024

## RRIRWRPPRLPRPRPRPSNHPRP
  shrunken log2 fold change: -0.471

## RRIRPRPPRLPRPRPRPHYMPRP
  shrunken log2 fold change: -0.747

## RRIRERPPRLPRPRPRPFKHPRP
  shrunken log2 fold change: -0.255

## RRIRMRPPRLPRPRPRPTTYPRP
  shrunken log2 fold change: 0.0427

## RRIRARPPRLPRPRPRPCFTPRP
  shrunken log2 fold change: -0.172

## RRIRARPPRLPRPRPRPVQHPRP
  shrunken log2 fold change: 0.555

## RRIRKRPPRLPRPRPRPPDGPRP
  shrunken log2 fold change: 0.992

## RRIRWRPPRLPRPRPRPRRPPRP
  shrunken log2 fold change: 0.508

## RRIRRRPPRLPRPRPRPGWMPRP
  shrunken log2 fold change: 0.0476

## RRIRIRPPRLPRPRPRPCRPPRP
  shrunken log2 fold change: -0.0283

## RRIRGRPPRLPRPRPRPWWLPRP
  shrunken log2 fold change: 0.0131

## RRIRERPPRLPRPRPRPCEYPRP
  shrunken log2 fold change: -0.0121

## RRIRHRPPRLPRPRPRPTHHPRP
  shrunken log2 fold change: -0.132

## RRIRSRPPRLPRPRPRPPKRPRP
  shrunken log2 fold change: 0.626

## RRIRVRPPRLPRPRPRPRWSPRP
  shrunken log2 fold change: 0.209

## RRIRWRPPRLPRPRPRPDMKPRP
  shrunken log2 fold change: 0.0231

## RRIRERPPRLPRPRPRPSYQPRP
  shrunken log2 fold change: -0.469

## RRIRGRPPRLPRPRPRPPKCPRP
  shrunken log2 fold change: 1.63

## RRIRSRPPRLPRPRPRPPSFPRP
  shrunken log2 fold change: 0.0731

## RRIRHRPPRLPRPRPRPFGHPRP
  shrunken log2 fold change: -0.233

## RRIRYRPPRLPRPRPRPFLFPRP
  shrunken log2 fold change: -0.704

## RRIRDRPPRLPRPRPRPEVPPRP
  shrunken log2 fold change: 0.0916

## RRIRVRPPRLPRPRPRPWTPPRP
  shrunken log2 fold change: 0.158

## RRIRRRPPRLPRPRPRPCRWPRP
  shrunken log2 fold change: 0.11

## RRIRMRPPRLPRPRPRPNTEPRP
  shrunken log2 fold change: -0.0533

## RRIRFRPPRLPRPRPRPNYAPRP
  shrunken log2 fold change: -0.127

## RRIRDRPPRLPRPRPRPNSLPRP
  shrunken log2 fold change: 0.0174

## RRIRMRPPRLPRPRPRPGLPPRP
  shrunken log2 fold change: 0.955

## RRIRSRPPRLPRPRPRPFYIPRP
  shrunken log2 fold change: -0.608

## RRIRDRPPRLPRPRPRPNHTPRP
  shrunken log2 fold change: -0.0643

## RRIRCRPPRLPRPRPRPAVYPRP
  shrunken log2 fold change: 0.0903

## RRIRRRPPRLPRPRPRPYWWPRP
  shrunken log2 fold change: -0.0898

## RRIRIRPPRLPRPRPRPKTLPRP
  shrunken log2 fold change: -0.229

## RRIRDRPPRLPRPRPRPMKPPRP
  shrunken log2 fold change: 0.0123

## RRIRSRPPRLPRPRPRPDLDPRP
  shrunken log2 fold change: 0.152

## RRIRSRPPRLPRPRPRPGWCPRP
  shrunken log2 fold change: 0.0616

## RRIRVRPPRLPRPRPRPCMPPRP
  shrunken log2 fold change: 0.112

## RRIRARPPRLPRPRPRPPIKPRP
  shrunken log2 fold change: -0.0438

## RRIRYRPPRLPRPRPRPFWIPRP
  shrunken log2 fold change: -0.0013

## RRIRYRPPRLPRPRPRPCSCPRP
  shrunken log2 fold change: -0.155

## RRIRHRPPRLPRPRPRPKLCPRP
  shrunken log2 fold change: -0.114

## RRIRWRPPRLPRPRPRPCKRPRP
  shrunken log2 fold change: 0.118

## RRIRVRPPRLPRPRPRPASVPRP
  shrunken log2 fold change: 0.0346

## RRIRGRPPRLPRPRPRPCPAPRP
  shrunken log2 fold change: 0.383

## RRIRPRPPRLPRPRPRPFAAPRP
  shrunken log2 fold change: 0.227

## RRIRQRPPRLPRPRPRPMWLPRP
  shrunken log2 fold change: -0.22

## RRIRQRPPRLPRPRPRPMMWPRP
  shrunken log2 fold change: 0.0311

## RRIRQRPPRLPRPRPRPEGIPRP
  shrunken log2 fold change: 0.0201

## RRIRLRPPRLPRPRPRPTTQPRP
  shrunken log2 fold change: 0.216

## RRIRDRPPRLPRPRPRPGSRPRP
  shrunken log2 fold change: 0.0273

## RRIRCRPPRLPRPRPRPGWWPRP
  shrunken log2 fold change: 0.054

## RRIRIRPPRLPRPRPRPITWPRP
  shrunken log2 fold change: -0.551

## RRIRARPPRLPRPRPRPMNEPRP
  shrunken log2 fold change: 0.374

## RRIRFRPPRLPRPRPRPQEDPRP
  shrunken log2 fold change: 0.0325

## RRIRRRPPRLPRPRPRPADDPRP
  shrunken log2 fold change: 0.213

## RRIRTRPPRLPRPRPRPSHHPRP
  shrunken log2 fold change: -0.646

## RRIRVRPPRLPRPRPRPWVTPRP
  shrunken log2 fold change: -0.375

## RRIRHRPPRLPRPRPRPSNTPRP
  shrunken log2 fold change: -0.278

## RRIRMRPPRLPRPRPRPNMWPRP
  shrunken log2 fold change: 0.0353

## RRIRERPPRLPRPRPRPENMPRP
  shrunken log2 fold change: 0.000515

## RRIRGRPPRLPRPRPRPIIMPRP
  shrunken log2 fold change: -0.129

## RRIRNRPPRLPRPRPRPEHIPRP
  shrunken log2 fold change: -0.313

## RRIRKRPPRLPRPRPRPHNVPRP
  shrunken log2 fold change: -0.097

## RRIRLRPPRLPRPRPRPHERPRP
  shrunken log2 fold change: 0.274

## RRIRDRPPRLPRPRPRPSRSPRP
  shrunken log2 fold change: 0.0199

## RRIRQRPPRLPRPRPRPNIQPRP
  shrunken log2 fold change: -0.228

## RRIRDRPPRLPRPRPRPSWQPRP
  shrunken log2 fold change: 0.321

## RRIRCRPPRLPRPRPRPIFTPRP
  shrunken log2 fold change: -0.48

## RRIRARPPRLPRPRPRPCPGPRP
  shrunken log2 fold change: -0.258

## RRIRWRPPRLPRPRPRPSWMPRP
  shrunken log2 fold change: -0.0675

## RRIRKRPPRLPRPRPRPFAWPRP
  shrunken log2 fold change: 0.462

## RRIRQRPPRLPRPRPRPRFMPRP
  shrunken log2 fold change: 0.137

## RRIRHRPPRLPRPRPRPSLMPRP
  shrunken log2 fold change: 0.0202

## RRIRQRPPRLPRPRPRPSWDPRP
  shrunken log2 fold change: -0.16

## RRIRQRPPRLPRPRPRPCAHPRP
  shrunken log2 fold change: -0.256

## RRIRARPPRLPRPRPRPIRYPRP
  shrunken log2 fold change: -0.263

## RRIRLRPPRLPRPRPRPCMWPRP
  shrunken log2 fold change: -0.0832

## RRIRIRPPRLPRPRPRPNYLPRP
  shrunken log2 fold change: -0.171

## RRIRPRPPRLPRPRPRPTGRPRP
  shrunken log2 fold change: 0.459

## RRIRYRPPRLPRPRPRPAPCPRP
  shrunken log2 fold change: -0.0799

## RRIRNRPPRLPRPRPRPLKEPRP
  shrunken log2 fold change: 0.00854

## RRIRWRPPRLPRPRPRPCLPPRP
  shrunken log2 fold change: -0.341

## RRIRLRPPRLPRPRPRPPVMPRP
  shrunken log2 fold change: 0.154

## RRIRYRPPRLPRPRPRPHWVPRP
  shrunken log2 fold change: 0.0405

## RRIRVRPPRLPRPRPRPSAFPRP
  shrunken log2 fold change: 0.0827

## RRIRPRPPRLPRPRPRPGLKPRP
  shrunken log2 fold change: 0.211

## RRIRKRPPRLPRPRPRPCMTPRP
  shrunken log2 fold change: 0.0372

## RRIRFRPPRLPRPRPRPSDWPRP
  shrunken log2 fold change: 0.0908

## RRIRWRPPRLPRPRPRPYLTPRP
  shrunken log2 fold change: -0.089

## RRIRKRPPRLPRPRPRPQRLPRP
  shrunken log2 fold change: 0.308

## RRIRMRPPRLPRPRPRPMNPPRP
  shrunken log2 fold change: 0.12

## RRIRARPPRLPRPRPRPKCGPRP
  shrunken log2 fold change: 0.432

## RRIRPRPPRLPRPRPRPMHTPRP
  shrunken log2 fold change: -0.0538

## RRIRSRPPRLPRPRPRPAQVPRP
  shrunken log2 fold change: 0.09

## RRIRTRPPRLPRPRPRPIYTPRP
  shrunken log2 fold change: -0.46

## RRIRLRPPRLPRPRPRPWKFPRP
  shrunken log2 fold change: -0.00232

## RRIRDRPPRLPRPRPRPKTLPRP
  shrunken log2 fold change: -0.21

## RRIRLRPPRLPRPRPRPEALPRP
  shrunken log2 fold change: -0.00171

## RRIRDRPPRLPRPRPRPMRFPRP
  shrunken log2 fold change: 0.21

## RRIRIRPPRLPRPRPRPQLLPRP
  shrunken log2 fold change: -0.0818

## RRIRDRPPRLPRPRPRPWWRPRP
  shrunken log2 fold change: 0.116

## RRIRMRPPRLPRPRPRPRWCPRP
  shrunken log2 fold change: 0.273

## RRIRFRPPRLPRPRPRPMTLPRP
  shrunken log2 fold change: -0.107

## RRIRERPPRLPRPRPRPYVLPRP
  shrunken log2 fold change: -0.125

## RRIRHRPPRLPRPRPRPERLPRP
  shrunken log2 fold change: 0.0977

## RRIRQRPPRLPRPRPRPNWGPRP
  shrunken log2 fold change: 0.105

## RRIRIRPPRLPRPRPRPEGLPRP
  shrunken log2 fold change: -0.185

## RRIRERPPRLPRPRPRPFTYPRP
  shrunken log2 fold change: -0.0534

## RRIRARPPRLPRPRPRPVTMPRP
  shrunken log2 fold change: 0.102

## RRIRMRPPRLPRPRPRPDFLPRP
  shrunken log2 fold change: 0.0612

## RRIRDRPPRLPRPRPRPYWTPRP
  shrunken log2 fold change: -0.195

## RRIRNRPPRLPRPRPRPSSVPRP
  shrunken log2 fold change: 0.066

## RRIRRRPPRLPRPRPRPQTRPRP
  shrunken log2 fold change: 0.511

## RRIRLRPPRLPRPRPRPQCSPRP
  shrunken log2 fold change: -0.127

## RRIRWRPPRLPRPRPRPLTAPRP
  shrunken log2 fold change: 0.436

## RRIRGRPPRLPRPRPRPYIGPRP
  shrunken log2 fold change: 0.018

## RRIRGRPPRLPRPRPRPCNRPRP
  shrunken log2 fold change: 0.212
